Laboratory results reported in the supplement of paper PMC12764529.
± gives the half width of the 95% confidence interval.

assay: folding stability dG unfold from trypsin proteolysis; higher = more stable
In short: (§1)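 How resistant each design was to proteolysis was captured as K50, inferred by Bayesian fitting of sequencing counts. Unfolding free energy was then derived relative to a sequence-predicted unfolded-state K50 and a shared folded-state K50, per protease or combined. Digestion used trypsin and chymotrypsin at 11 threefold-diluted concentrations plus a no-protease condition, on mini-proteins under 80 residues without cysteine in a PA-tagged cDNA display construct. Designs were kept only when AlphaFold2 dimer inter-PAE was above 15.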

First: SAGGENYTFEMEITIPIPLPNPNGKLKKLPIKVPIEYEYDDPAQRNQAMQNMIMRIIDLALKELGVPSAGGS [r16_339_TrROS]
Second: SAGGMPREVAKEMIENDKDAKVTFTIYRFPDGPVPSVTVEVIEADVKDPDAFLESVPEGWLVLVEPASAGGS [r16_116_TrMRF]
The “folding stability dG unfold” value of the first is higher: 1.46 ± 0.048 kcal/mol for the first, 0.245 ± 0.13 kcal/mol for the second.

Compared with “SAKFRVSISYDPPDGYLTIMFRYPNPNQPITPEEIEEIAREILEERGHKVKIDEIHHEGNYFMIKIKLPSAG [r14_556_TrROS]”, “SAGGSMPKGQEVKIEIEHRRHNGRRYWRVSVEVPNGKDIEIPFDDPEEMPPEMKKQIENLAKEIVKSAGGSA [r2_17_TrROS]” is lower in “folding stability dG unfold” value: 2.51 ± 0.11 kcal/mol for the first, 0.146 ± 0.11 kcal/mol for the second.

First: SAGGPNFIVKIRIPMRKYERENDPGGKPKWEPVEPQRVEITIIFKGPPEQAKQIREELENHGLEVEPISAGG [r13_452_TrROS]
Second: SAGGSDVKTYTFVGIDPETGELVETTFRVTPLVPPVPVSVSVSLTLDVDPDGNLHLSLSVSVELGGSAGGSA [r2_326_TrMRF]
The “folding stability dG unfold” value of the first is lower: 1.65 ± 0.077 kcal/mol for the first, 3.21 ± 0.11 kcal/mol for the second.

Compared with “SAGGSAGGSAPPNLKIEIDLQRHPEDDHIFLEMEATYPDDGKELKVMIMINPDDGKIGIMIMSAGGSAGGSA [r18_383_TrROS]”, “SAGGSAGGSAGLIVTHPDGGVTTLRLTLTFTFEGPVGPPKTVTFEFTLTVAPNGTEVTLESAGGSAGGSAGG [r11_271_TrMRF]” is higher in “folding stability dG unfold” value: 2.76 ± 0.22 kcal/mol for the first, 3.34 ± 0.16 kcal/mol for the second.

Compared with “SAGGSAGGSAGGSGMTTTLLEQREFTLPNGEPVRVTVARFPGGEIVTETEDGVVTTDPLSAGGSAGGSAGGS [r4_111_JUSTAS]”, “SAGGPGWVTVEFWIPIEPDPNQTRDDVKEKAEEIVHEMAEYHPQFGITNVKVDVDPEEGWVKVSIVWPSAGG [r13_1011_TrROS]” is higher in “folding stability dG unfold” value: -0.134 ± 0.064 kcal/mol for the first, 1.47 ± 0.16 kcal/mol for the second.

Going from “SAGGSVDIKRIEIYHPPDDKIYIRIDAVASPEHPEDPELRKAQAEALRKPVIEELMKKLGIEPEELSAGGSA [r2_306_JUSTAS]” to “SAGGSANVQVEQTGDGKIKIEFPWYGAEITLNPKKGDIEVEVLPNYKNGQPPPEDEVKNLAKEILDSAGGSA [r15_735_TrROS]”, the “folding stability dG unfold” value falls from 0.241 ± 0.075 kcal/mol to -0.0532 ± 0.092 kcal/mol.

“SAGPADPGFLGTRTVPHPDGVVTVDVYRFAGTRVLITITLPDSTVPVEDPVESEEEALAFADAVVAEVGLSA [r9_758_JUSTAS]” and “SASLPPGQVRSLPVDVTIETPEGQPRFTEPATLEPPPRLVVDVALPLPPGEVTITIRLPGPGVTLTIERSAG [r14_280_JUSTAS]” are within error of each other in “folding stability dG unfold” value: 0.637 ± 0.081 kcal/mol for the first, 0.562 ± 0.089 kcal/mol for the second.

Going from “SGLAPGEVVPEKFEREITDPETGKKYKVEVTTEIAPENPVRRVTVTTTPPDGTTTTTEEVIPPGEEYTLESA [r9_88_JUSTAS]” to “SAGGSAGGGSMSVSYDPSTGNTITTTTTRSPTPLTTTTTTTTFPDGSTSTSTTTTAAPPPAPTTSAGGSAGG [r6_955_JUSTAS]”, the “folding stability dG unfold” value rises from -0.889 ± 0.27 kcal/mol to 0.833 ± 0.029 kcal/mol.

First: SAGGSAGGSLKKGEKVKLRARIYEPGGGKLLAELEIEADVGKAEEIAEELRKAFPGYEVEIELSAGGSAGGS [r12_21_TrMRF]
Second: SSMPLEEIVERVAEELGIPEEELERIESVDPGVVDPSPEGPTRVELRITLRDPHSDTTTEYRVEVEDPGGSA [r9_230_JUSTAS]
The “folding stability dG unfold” value of the first is higher: 2.67 ± 0.036 kcal/mol for the first, -0.784 ± 0.3 kcal/mol for the second.

First: SAGGSAGGSAGPEITVVKAPDEGYYYLIKLKVTYTLRDPETTAPLAEFEVEYYFLDRGSASAGGSAGGSAGG [r17_124_TrMRF]
Second: SAGGSAGGSAGMKVKTDPSSGPTVNKAYLENGTLILTTVTYDPSNGTTSTTTTVVPLSLLSAGGSAGGSAGG [r17_287_JUSTAS]
The “folding stability dG unfold” value of the first is higher: 3.3 ± 0.28 kcal/mol for the first, 0.433 ± 0.12 kcal/mol for the second.

With “SAGGEEEAVEKPFYQLPEKKPLKTVPMSREEALALARENPDLGILYAEEDGKLWKVDAETGTIEPLGSAGGS [r16_214_JUSTAS]” the “folding stability dG unfold” value was 1.23 ± 0.043 kcal/mol.

assay: folding stability dG unfold (combined trypsin and chymotrypsin); higher = more stable
In short: as §1

Going from “SAGGSAIKLPPGEEYTIIMRNPQNGRPFKVPIKRVDPGQIQIEIENPKNGEKQKFTIPANDIEIVKSAGGSA [r15_381_TrROS]” to “SAGKPKVKVKKITVTITYDPETGTITIEATIEIDGKTIKLTITITLPEELRNLKPGDTITIEITIIIEPSAG [r5_714_TrROS_Hall]”, the “folding stability dG unfold” value rises from -0.194 ± 0.16 kcal/mol to 3.15 ± 0.12 kcal/mol.

Compared with “SAGGSAGGMLLVRIKVRRPDGSEETIVLEFESEEELKAAIEELLPPGWEVVEIELVPLGEELPESAGGSAGG [r6_872_TrROS_Hall]”, “SAGGSAGGAERIKNLLEDYGFELKDVEMDEPGSTKIHITPDNPSLRKDIKDKLPPGNVDSITDTSAGGSAGG [r6_84_TrROS]” is lower in “folding stability dG unfold” value: 4.49 ± 0.11 kcal/mol for the first, 0.882 ± 0.26 kcal/mol for the second.

Compared with “SAGGSASVEIIFDPNKPTVTIYVPGPVDPNEPITLTLPGGPSLTITEIEVEKIGKEYVVKAKVTKLSAGGSA [r15_838_JUSTAS]”, “SAKIEIIKKDGEYYLRITLENGKKKTIKLKGIKKIEIKNGKIYIYNKKTGKKIILKNAKIKKIEIEKVPSAG [r14_83_TrROS_Hall]” is higher in “folding stability dG unfold” value: 1.8 ± 0.051 kcal/mol for the first, 3.87 ± 0.41 kcal/mol for the second.

“SAKMSPEMRELVERLQDLYNENGYKVKIEMSNKPGMIRINVQMPNPRKKRKIKEALRGDGFPITRVEIYSAG [r14_284_TrROS]” and “SAGGSAGGSAGGPVRIVMKPSDIEYLLEKFGVEPLEIEEVEEDYVVVTITPEALKEAGLGSAGGSAGGSAGG [r7_587_TrMRF]” are within error of each other in “folding stability dG unfold” value: 1.36 ± 0.23 kcal/mol for the first, 1.01 ± 0.18 kcal/mol for the second.

“SAGGDFKPPVPTTQVLTFTIETSPEDPEKAKEIAEKLKKELLEKGAVKIEVTLDPEPGTVTVTVTLVKLSAG [r5_512_JUSTAS]” and “SAGGMVILVKDKDGRWRELSEEEIRRLAEELERRYNLEVEEVELEDGERYYLIRIEPPEVPGLSEEELSAGG [r13_790_TrROS_Hall]” are within error of each other in “folding stability dG unfold” value: 2.51 ± 0.19 kcal/mol for the first, 2.23 ± 0.21 kcal/mol for the second.
